This is an account of results in paper PMC4293355 (Developmental cell, 2014).

The target in this assay is G-actin (UniProt P68135 1-377). The assay is described as follows: fluorescence polarisation.

B1: TMR-SpWsp1(VCA) (domain or fragment)
chain: QDGRANLMASIRASGGMDLLKSRKVSASPSVASTKTSNPPVEAPPSNNLMDALASALNQRKTKVAQSDEEDEDDDEWD
modifications: TMR-labeled (position not given)
With B1, the Kd is approximately 21 nM.
